Measurements as given in IntAct's records for PubMed 35512704.

B1: Speckle-type POZ protein (Homo sapiens), O43791 (parent)
chain: MSRVPSPPPPAEMSSGPVAESWCYTQIKVVKFSYMWTINNFSFCREEMGEVIKSSTFSSGANDKLKWCLRVNPKGLDEESKDYLSLYLLLVSCPKSEVRAKFKFSILNAKGEETKAMESQRAYRFVQGKDWGFKKFIRRDFLLDEANGLLPDDKLTLFCEVSVVQDSVNISGQNTMNMVKVPECRLADELGGLWENSRFTDCCLCVAGQEFQAHKAILAARSPVFSAMFEHEMEESKKNRVEINDVEPEVFKEMMCFIYTGKAPNLDKMADDLLAAADKYALERLKVMCEDALCSNLSVENAAEILILADLHSADQLKTQAVDFINYHASDVLETSGWKSMVVSHPHLVAEAYRSLASAQCPFLGPPRKRLKQS
partner: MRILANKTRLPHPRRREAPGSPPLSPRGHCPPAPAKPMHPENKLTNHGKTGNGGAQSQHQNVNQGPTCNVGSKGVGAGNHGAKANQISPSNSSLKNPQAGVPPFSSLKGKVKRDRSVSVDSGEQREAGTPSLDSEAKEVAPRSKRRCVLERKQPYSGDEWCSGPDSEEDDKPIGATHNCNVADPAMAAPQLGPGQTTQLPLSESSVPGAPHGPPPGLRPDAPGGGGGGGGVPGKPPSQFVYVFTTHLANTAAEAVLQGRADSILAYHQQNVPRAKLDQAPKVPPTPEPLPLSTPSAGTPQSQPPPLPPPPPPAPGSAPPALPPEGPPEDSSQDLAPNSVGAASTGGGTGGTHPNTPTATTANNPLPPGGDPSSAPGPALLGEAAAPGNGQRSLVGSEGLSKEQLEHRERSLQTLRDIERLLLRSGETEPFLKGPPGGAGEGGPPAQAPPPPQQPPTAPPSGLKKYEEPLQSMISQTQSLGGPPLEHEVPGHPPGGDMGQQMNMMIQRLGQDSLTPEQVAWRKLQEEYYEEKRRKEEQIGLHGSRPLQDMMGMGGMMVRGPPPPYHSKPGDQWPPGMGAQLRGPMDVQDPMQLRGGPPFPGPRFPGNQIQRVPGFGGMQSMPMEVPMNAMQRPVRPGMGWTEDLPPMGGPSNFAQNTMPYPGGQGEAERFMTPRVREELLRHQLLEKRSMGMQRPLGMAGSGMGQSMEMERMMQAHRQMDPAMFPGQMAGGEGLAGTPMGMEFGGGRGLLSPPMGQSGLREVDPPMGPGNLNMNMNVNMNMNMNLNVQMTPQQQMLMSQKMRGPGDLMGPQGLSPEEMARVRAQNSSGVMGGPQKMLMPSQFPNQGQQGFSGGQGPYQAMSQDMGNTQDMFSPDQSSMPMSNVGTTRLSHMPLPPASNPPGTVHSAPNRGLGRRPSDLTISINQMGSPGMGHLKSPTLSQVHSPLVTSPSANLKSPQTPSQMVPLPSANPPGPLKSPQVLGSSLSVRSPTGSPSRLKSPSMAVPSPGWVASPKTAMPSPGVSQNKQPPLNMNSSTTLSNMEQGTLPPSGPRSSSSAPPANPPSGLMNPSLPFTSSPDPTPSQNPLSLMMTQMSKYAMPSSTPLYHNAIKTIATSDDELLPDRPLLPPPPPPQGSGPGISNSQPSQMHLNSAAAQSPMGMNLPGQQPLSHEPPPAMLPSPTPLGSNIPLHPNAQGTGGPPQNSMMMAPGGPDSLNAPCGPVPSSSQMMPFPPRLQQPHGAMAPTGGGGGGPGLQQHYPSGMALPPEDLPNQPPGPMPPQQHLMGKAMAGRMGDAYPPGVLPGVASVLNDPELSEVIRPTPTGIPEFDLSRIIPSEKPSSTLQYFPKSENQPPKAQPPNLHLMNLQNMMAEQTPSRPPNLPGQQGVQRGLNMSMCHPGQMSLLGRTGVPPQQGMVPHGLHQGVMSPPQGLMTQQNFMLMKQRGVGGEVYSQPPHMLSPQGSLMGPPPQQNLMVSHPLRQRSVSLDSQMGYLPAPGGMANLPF
B2: Speckle-type POZ protein (Homo sapiens), O43791 (parent)
chain: B1 chain
partner: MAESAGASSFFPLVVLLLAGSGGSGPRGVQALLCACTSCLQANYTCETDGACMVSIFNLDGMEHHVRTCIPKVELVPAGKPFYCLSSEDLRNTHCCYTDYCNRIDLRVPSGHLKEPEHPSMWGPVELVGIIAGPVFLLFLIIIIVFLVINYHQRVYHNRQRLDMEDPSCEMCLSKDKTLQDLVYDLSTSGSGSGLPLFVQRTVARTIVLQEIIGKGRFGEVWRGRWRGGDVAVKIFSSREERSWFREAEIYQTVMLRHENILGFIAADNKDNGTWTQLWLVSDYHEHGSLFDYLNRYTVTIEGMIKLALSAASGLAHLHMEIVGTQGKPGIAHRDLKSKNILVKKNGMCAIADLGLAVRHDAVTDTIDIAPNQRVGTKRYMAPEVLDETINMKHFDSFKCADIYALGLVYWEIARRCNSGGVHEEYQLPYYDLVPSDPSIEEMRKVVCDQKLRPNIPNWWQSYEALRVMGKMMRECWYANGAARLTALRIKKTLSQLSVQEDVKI
B3: Speckle-type POZ protein (Homo sapiens), O43791 (parent)
chain: B1 chain
partner: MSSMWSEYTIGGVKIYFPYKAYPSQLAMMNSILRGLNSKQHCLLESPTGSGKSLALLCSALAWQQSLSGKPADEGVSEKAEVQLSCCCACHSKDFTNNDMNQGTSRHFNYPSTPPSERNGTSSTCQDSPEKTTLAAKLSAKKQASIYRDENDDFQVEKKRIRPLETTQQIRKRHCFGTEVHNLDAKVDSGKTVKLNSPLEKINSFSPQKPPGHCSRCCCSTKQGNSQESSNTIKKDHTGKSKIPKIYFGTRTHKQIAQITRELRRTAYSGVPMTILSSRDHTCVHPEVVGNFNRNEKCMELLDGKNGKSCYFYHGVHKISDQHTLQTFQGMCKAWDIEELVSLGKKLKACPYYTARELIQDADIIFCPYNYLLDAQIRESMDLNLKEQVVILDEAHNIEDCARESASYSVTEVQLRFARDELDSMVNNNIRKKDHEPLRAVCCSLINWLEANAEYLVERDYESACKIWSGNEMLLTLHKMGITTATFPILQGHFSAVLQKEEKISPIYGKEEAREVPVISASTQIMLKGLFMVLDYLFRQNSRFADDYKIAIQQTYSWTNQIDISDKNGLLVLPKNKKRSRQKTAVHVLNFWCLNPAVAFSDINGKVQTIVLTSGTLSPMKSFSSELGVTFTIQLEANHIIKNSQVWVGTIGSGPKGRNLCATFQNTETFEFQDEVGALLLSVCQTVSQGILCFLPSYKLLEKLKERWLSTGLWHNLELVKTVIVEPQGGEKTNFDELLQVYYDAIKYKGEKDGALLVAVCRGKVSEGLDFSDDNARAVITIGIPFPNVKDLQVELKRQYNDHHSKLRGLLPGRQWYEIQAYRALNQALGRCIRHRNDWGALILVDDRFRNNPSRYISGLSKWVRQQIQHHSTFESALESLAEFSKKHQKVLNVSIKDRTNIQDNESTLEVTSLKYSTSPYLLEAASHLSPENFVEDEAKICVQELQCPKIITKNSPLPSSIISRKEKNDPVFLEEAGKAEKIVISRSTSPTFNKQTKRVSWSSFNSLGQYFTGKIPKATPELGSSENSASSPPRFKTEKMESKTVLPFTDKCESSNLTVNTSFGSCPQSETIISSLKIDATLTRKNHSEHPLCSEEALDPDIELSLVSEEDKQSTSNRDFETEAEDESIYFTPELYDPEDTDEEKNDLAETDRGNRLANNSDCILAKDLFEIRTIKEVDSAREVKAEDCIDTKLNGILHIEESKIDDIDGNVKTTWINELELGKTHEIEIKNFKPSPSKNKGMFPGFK

Variants of: B1
Settings: with bcl9l_human BCL9L

Variant | effect of a mutation on the interaction
MSRVPSPPPPAEMSSGPVAESWCYTQIKVVKFSYMWTINNFSFCREEMGEVIKSSTFSSGANDKLKWCLRVNPKGLDEESKDYLSLCLLLVSCPKSEVRAKFKFSILNAKGEETKAMESQRAYRFVQGKDWGFKKFIRRDFLLDEANGLLPDDKLTLFCEVSVVQDSVNISGQNTMNMVKVPECRLADELGGLWENSRFTDCCLCVAGQEFQAHKAILAARSPVFSAMFEHEMEESKKNRVEINDVEPEVFKEMMCFIYTGKAPNLDKMADDLLAAADKYALERLKVMCEDALCSNLSVENAAEILILADLHSADQLKTQAVDFINYHASDVLETSGWKSMVVSHPHLVAEAYRSLASAQCPFLGPPRKRLKQS [Y87C] | with no effect

Variants of: B1
Settings: with bcl9l_human BCL9L
Remark: another data set of the same source

Variant | effect of a mutation on the interaction
MSRVPSPPPPAEMSSGPVAESWCYTQIKVVKFSYMWTINNFSFCREEMGEVIKSSTFSSGANDKLKWCLRVNPKGLDEESKDYLSLYLLLVSCPKSEVRAKCKFSILNAKGEETKAMESQRAYRFVQGKDWGFKKFIRRDFLLDEANGLLPDDKLTLFCEVSVVQDSVNISGQNTMNMVKVPECRLADELGGLWENSRFTDCCLCVAGQEFQAHKAILAARSPVFSAMFEHEMEESKKNRVEINDVEPEVFKEMMCFIYTGKAPNLDKMADDLLAAADKYALERLKVMCEDALCSNLSVENAAEILILADLHSADQLKTQAVDFINYHASDVLETSGWKSMVVSHPHLVAEAYRSLASAQCPFLGPPRKRLKQS [F102C] | with no effect

Variants of: B2
Settings: with acv1b_human ACVR1B

Variant | effect of a mutation on the interaction
MSRVPSPPPPAEMSSGPVAESWCYTQIKVVKFSYMWTINNFSFCREEMGEVIKSSTFSSGANDKLKWCLRVNPKGLDEESKDYLSLYLLLVSCPKSEVRAKFKFSILNAKGEETKAMESQRAYRFVQGKDWGVKKFIRRDFLLDEANGLLPDDKLTLFCEVSVVQDSVNISGQNTMNMVKVPECRLADELGGLWENSRFTDCCLCVAGQEFQAHKAILAARSPVFSAMFEHEMEESKKNRVEINDVEPEVFKEMMCFIYTGKAPNLDKMADDLLAAADKYALERLKVMCEDALCSNLSVENAAEILILADLHSADQLKTQAVDFINYHASDVLETSGWKSMVVSHPHLVAEAYRSLASAQCPFLGPPRKRLKQS [F133V] | with no effect

Variants of: B2
Settings: with acv1b_human ACVR1B
Remark: another data set of the same source

Variant | effect of a mutation on the interaction
MSRVPSPPPPAEMSSGPVAESWCYTQIKVVKFSYMWTINNFSFCREEMGEVIKSSTFSSGANDKLKWCLRVNPKGLDEESKDYLSLCLLLVSCPKSEVRAKFKFSILNAKGEETKAMESQRAYRFVQGKDWGFKKFIRRDFLLDEANGLLPDDKLTLFCEVSVVQDSVNISGQNTMNMVKVPECRLADELGGLWENSRFTDCCLCVAGQEFQAHKAILAARSPVFSAMFEHEMEESKKNRVEINDVEPEVFKEMMCFIYTGKAPNLDKMADDLLAAADKYALERLKVMCEDALCSNLSVENAAEILILADLHSADQLKTQAVDFINYHASDVLETSGWKSMVVSHPHLVAEAYRSLASAQCPFLGPPRKRLKQS [Y87C] | with no effect

Variants of: B3
Settings: with fancj_human BRIP1, Q9BX63

Variant | effect of a mutation on the interaction
MSRVPSPPPPAEMSSGPVAESWCYTQIKVVKFSYMWTINNFSFCREEMGEVIKSSTFSSGANDKLKWCLRVNPKGLDEESKDYLSLYLLLVSCPKSEVRAKCKFSILNAKGEETKAMESQRAYRFVQGKDWGFKKFIRRDFLLDEANGLLPDDKLTLFCEVSVVQDSVNISGQNTMNMVKVPECRLADELGGLWENSRFTDCCLCVAGQEFQAHKAILAARSPVFSAMFEHEMEESKKNRVEINDVEPEVFKEMMCFIYTGKAPNLDKMADDLLAAADKYALERLKVMCEDALCSNLSVENAAEILILADLHSADQLKTQAVDFINYHASDVLETSGWKSMVVSHPHLVAEAYRSLASAQCPFLGPPRKRLKQS [F102C] | with no effect

Variants of: B3
Settings: with fancj_human BRIP1, Q9BX63
Remark: another data set of the same source

Variant | effect of a mutation on the interaction
MSRVPSPPPPAEMSSGPVAESWCYTQIKVVKFSYMWTINNFSFCREEMGEVIKSSTFSSGANDKLKWCLRVNPKGLDEESKDYLSLCLLLVSCPKSEVRAKFKFSILNAKGEETKAMESQRAYRFVQGKDWGFKKFIRRDFLLDEANGLLPDDKLTLFCEVSVVQDSVNISGQNTMNMVKVPECRLADELGGLWENSRFTDCCLCVAGQEFQAHKAILAARSPVFSAMFEHEMEESKKNRVEINDVEPEVFKEMMCFIYTGKAPNLDKMADDLLAAADKYALERLKVMCEDALCSNLSVENAAEILILADLHSADQLKTQAVDFINYHASDVLETSGWKSMVVSHPHLVAEAYRSLASAQCPFLGPPRKRLKQS [Y87C] | with no effect

Variants of: B3
Settings: with fancj_human BRIP1, Q9BX63
Remark: another data set of the same source

Variant | effect of a mutation on the interaction
MSRVPSPPPPAEMSSGPVAESWCYTQIKVVKFSYMWTINNFSFCREEMGEVIKSSTFSSGANDKLKWCLRVNPKGLDEESKDYLSLYLLLVSCPKSEVRAKFKFSILNAKGEETKAMESQRAYRFVQGKDWGVKKFIRRDFLLDEANGLLPDDKLTLFCEVSVVQDSVNISGQNTMNMVKVPECRLADELGGLWENSRFTDCCLCVAGQEFQAHKAILAARSPVFSAMFEHEMEESKKNRVEINDVEPEVFKEMMCFIYTGKAPNLDKMADDLLAAADKYALERLKVMCEDALCSNLSVENAAEILILADLHSADQLKTQAVDFINYHASDVLETSGWKSMVVSHPHLVAEAYRSLASAQCPFLGPPRKRLKQS [F133V] | with no effect

Variants of: B3
Settings: with fancj_human BRIP1, Q9BX63
Remark: another data set of the same source

Variant | effect of a mutation on the interaction
MSRVPSPPPPAEMSSGPVAESWCYTQIKVVKFSYMWTINNFSFCREEMGEVIKSSTFSSGANDKLKWCLRVNPKGLDEESKDYLSLYLLLVSCPKSEVRAKFKFSILNAKGEETKAMESQRAYRFVQGKDWGLKKFIRRDFLLDEANGLLPDDKLTLFCEVSVVQDSVNISGQNTMNMVKVPECRLADELGGLWENSRFTDCCLCVAGQEFQAHKAILAARSPVFSAMFEHEMEESKKNRVEINDVEPEVFKEMMCFIYTGKAPNLDKMADDLLAAADKYALERLKVMCEDALCSNLSVENAAEILILADLHSADQLKTQAVDFINYHASDVLETSGWKSMVVSHPHLVAEAYRSLASAQCPFLGPPRKRLKQS [F133L] | with no effect
